Results on four substances are retold here after publication PMC3734285, “Expression and Function of the Lipocalin-2 (24p3/NGAL) Receptor in Rodent and Human Intestinal Epithelia” (PLoS ONE, 2013).

The target of assay [1] is human lipocalin-2/NGAL receptor (hNGAL-R) (human (endogenous in Caco-2 BBE)) (UniProt Q8WUG5).
The target is the same in assay [2]. This is another data set of the same source.
For assay [3] the target is unchanged. The assay can be described thus: MST; as a1 but co-incubated with 500 pM hNGAL as a binding competitor to A488-PC3.
For assay [4] the target is unchanged. The assay can be described thus: MST; fixed amounts of colon-like Caco-2 BBE plasma membrane vesicles pre-incubated 5 min at room temperature with varying A488-PC3 (10-1000 nM); 50 mM Tris pH 7.4, 150 mM NaCl, 10 mM MgCl2, 0.05% Tween-20; Hill fit with coefficient 1.0.
The target in assay [5] is hNGAL-R (Homo sapiens) (UniProt Q8WUG5). The note with it: cited from earlier work.
hNGAL-R (Homo sapiens), sequence (Q8WUG5 whole entry): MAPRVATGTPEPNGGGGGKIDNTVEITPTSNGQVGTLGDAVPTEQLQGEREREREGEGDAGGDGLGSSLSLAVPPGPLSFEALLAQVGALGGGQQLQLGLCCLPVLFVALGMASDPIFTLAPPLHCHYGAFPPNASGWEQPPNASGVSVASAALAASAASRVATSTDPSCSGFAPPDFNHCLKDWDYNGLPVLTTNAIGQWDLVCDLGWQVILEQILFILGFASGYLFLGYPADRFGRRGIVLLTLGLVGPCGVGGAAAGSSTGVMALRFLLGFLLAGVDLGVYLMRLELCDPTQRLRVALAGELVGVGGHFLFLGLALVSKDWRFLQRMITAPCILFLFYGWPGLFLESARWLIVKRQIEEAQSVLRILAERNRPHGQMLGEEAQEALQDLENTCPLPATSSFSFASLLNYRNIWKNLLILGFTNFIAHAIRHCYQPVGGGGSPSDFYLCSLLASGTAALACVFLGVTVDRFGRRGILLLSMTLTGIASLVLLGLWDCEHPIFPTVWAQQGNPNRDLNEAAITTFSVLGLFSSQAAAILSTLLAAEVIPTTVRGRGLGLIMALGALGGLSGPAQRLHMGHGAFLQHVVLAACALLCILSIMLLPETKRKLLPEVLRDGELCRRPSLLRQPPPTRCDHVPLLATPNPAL

The EC50 is the concentration needed to bring the measured effect to its halfway point. Low readings indicate higher potency in that assay, high ones lower potency in that assay. As usually defined, the Kd is the free concentration of one partner at which half of the binding sites on the other are occupied at equilibrium, for simple one-to-one binding.

human lipocalin-2/NGAL receptor (hNGAL-R) (human (endogenous in Caco-2 BBE)), sequence (Q8WUG5 112-649): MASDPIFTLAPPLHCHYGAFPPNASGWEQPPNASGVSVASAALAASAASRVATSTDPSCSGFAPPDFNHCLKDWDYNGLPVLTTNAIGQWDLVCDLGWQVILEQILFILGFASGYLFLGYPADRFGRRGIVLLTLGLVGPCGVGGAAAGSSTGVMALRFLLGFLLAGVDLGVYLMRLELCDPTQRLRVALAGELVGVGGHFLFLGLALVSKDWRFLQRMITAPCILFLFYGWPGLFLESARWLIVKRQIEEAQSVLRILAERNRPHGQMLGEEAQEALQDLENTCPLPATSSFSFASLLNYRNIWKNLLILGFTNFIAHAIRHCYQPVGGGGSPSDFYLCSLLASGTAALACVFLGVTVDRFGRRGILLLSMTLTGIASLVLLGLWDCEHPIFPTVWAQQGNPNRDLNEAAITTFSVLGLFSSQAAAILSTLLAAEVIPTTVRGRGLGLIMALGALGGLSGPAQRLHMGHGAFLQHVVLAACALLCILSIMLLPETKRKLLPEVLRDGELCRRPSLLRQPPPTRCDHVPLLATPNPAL
hNGAL (lipocalin-2), sequence (P80188 21-198): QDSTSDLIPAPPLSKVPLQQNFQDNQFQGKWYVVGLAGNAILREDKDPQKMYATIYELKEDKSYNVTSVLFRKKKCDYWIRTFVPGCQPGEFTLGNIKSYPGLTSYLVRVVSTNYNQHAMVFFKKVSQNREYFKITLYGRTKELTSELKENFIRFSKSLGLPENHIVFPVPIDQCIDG
Alexa Fluor 546-labelled metallothionein (rabbit apo-MT-2), sequence (P18055 whole entry): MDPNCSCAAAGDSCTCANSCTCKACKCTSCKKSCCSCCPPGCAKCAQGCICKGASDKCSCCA
Alexa Fluor 546-transferrin from human serum, sequence (P02787 20-698): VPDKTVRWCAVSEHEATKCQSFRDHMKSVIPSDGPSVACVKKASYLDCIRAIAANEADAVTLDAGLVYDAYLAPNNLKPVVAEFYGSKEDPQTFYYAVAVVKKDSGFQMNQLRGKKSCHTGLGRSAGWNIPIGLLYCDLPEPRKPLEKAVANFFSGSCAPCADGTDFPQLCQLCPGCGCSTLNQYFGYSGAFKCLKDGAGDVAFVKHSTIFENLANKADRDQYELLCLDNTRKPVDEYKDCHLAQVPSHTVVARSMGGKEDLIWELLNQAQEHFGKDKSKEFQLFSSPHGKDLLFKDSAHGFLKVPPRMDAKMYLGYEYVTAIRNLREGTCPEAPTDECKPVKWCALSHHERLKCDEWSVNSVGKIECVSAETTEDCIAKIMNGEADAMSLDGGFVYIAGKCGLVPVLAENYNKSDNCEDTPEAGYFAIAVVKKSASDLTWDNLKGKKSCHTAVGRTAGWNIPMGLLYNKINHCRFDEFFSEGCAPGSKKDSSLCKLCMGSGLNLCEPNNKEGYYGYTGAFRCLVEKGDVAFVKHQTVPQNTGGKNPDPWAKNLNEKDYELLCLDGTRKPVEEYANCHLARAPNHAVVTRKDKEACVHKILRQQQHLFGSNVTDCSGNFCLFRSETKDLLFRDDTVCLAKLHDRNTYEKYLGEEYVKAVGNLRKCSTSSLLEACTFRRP

In assay [1], “Alexa Fluor 488 (A488)-PC3 (phytochelatin PC3) (peptide)” registered an internalization of A488-PC3 (up to 5.6 µM, 24 h) by colon-like Caco-2 BBE cells, two-site fit, first app KD of 90 nM. The substance also yielded an inhibition by 500 pM apical hNGAL of the apical decrease of 700 nM A488-PC3 in colon-like Caco-2 BBE Transwell monolayers (AUC over 8 h) in assay [2] of 25%. Besides, in assay [3], the EC50 with 500 pM hNGAL was 225 nM. The substance also showed an EC50 in assay [4] of 18.6 nM.

Substance “Alexa Fluor 546-labelled metallothionein (rabbit apo-MT-2) (from UniProt P18055 1-62) (natural protein)” yielded an inhibition by 500 pM apical hNGAL of the apical decrease of 700 nM A546-MT in colon-like Caco-2 BBE Transwell monolayers (AUC over 8 h) in assay [2] of 40%.

With “Alexa Fluor 546-transferrin from human serum (from UniProt P02787 20-698) (natural protein)”, the inhibition by 500 pM apical hNGAL of the apical decrease of 700 nM A546-Tf in colon-like Caco-2 BBE Transwell monolayers (AUC over 8 h) in assay [2] turned out to be 25%.

Take “hNGAL (lipocalin-2) (from UniProt P80188)”: the Kd in assay [5] is 0.092 nM.
